Assay results from patent EP4687981A2 (dated 2026).

Target: T1, human CDH11 on primary human fibroblast-like synoviocytes (FLS) (human, UniProt P55287 54-796)
T1 construct: whole, on cells; also called human FLS; human synoviocytes
T1 sequence (looked up): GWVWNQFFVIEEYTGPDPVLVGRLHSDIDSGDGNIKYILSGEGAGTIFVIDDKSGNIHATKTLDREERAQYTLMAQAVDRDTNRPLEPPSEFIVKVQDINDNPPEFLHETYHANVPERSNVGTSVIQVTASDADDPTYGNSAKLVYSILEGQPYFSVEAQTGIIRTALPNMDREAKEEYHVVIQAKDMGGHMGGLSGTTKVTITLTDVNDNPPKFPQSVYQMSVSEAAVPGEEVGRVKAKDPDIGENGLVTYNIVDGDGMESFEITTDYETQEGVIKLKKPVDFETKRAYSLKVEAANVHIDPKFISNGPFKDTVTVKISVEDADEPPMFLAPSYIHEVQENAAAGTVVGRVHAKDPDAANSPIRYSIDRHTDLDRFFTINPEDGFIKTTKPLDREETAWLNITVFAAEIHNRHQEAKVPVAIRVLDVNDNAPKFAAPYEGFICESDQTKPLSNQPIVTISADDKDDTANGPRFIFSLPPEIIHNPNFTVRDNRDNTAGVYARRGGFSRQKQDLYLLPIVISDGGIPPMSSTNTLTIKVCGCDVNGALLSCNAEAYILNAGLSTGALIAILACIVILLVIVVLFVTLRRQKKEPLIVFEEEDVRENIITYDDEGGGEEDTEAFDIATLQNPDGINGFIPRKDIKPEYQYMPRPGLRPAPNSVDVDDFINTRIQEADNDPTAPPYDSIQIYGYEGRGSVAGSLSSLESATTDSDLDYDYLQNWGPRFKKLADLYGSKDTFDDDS
Assay: flow cytometry, hybridoma supernatant on primary human FLS

binding result: binds
B1: anti-CDH11 antibody 10E1 (antibody, V domains shown)
VH: QVQLQQSGPGLVKPSQTLSLTCAISGDSVSSNSAAWNWIRQSPSRGLEWLGRTYYRSKWYNDYAVSVKSRITINPDTSKNQFSLQLNSMTPEDTAVYYCARATMVRGAFDYWGQGTLVTVSS
VL: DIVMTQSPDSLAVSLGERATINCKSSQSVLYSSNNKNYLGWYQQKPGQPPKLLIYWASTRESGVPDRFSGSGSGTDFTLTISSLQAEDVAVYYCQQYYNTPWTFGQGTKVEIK
notes: Monoclonal from a VelocImmune mouse hybridoma; It was detected with anti-mouse IgG Fc, so the constant regions are mouse; the isotype cannot be read in this copy; also called clone 10E1
